Measured values taken from paper doi:10.1101/2023.01.09.523258.

Target: T1, Albumin from chicken egg (Ovalbumin/OVA) (chicken), P01012
T1 chain: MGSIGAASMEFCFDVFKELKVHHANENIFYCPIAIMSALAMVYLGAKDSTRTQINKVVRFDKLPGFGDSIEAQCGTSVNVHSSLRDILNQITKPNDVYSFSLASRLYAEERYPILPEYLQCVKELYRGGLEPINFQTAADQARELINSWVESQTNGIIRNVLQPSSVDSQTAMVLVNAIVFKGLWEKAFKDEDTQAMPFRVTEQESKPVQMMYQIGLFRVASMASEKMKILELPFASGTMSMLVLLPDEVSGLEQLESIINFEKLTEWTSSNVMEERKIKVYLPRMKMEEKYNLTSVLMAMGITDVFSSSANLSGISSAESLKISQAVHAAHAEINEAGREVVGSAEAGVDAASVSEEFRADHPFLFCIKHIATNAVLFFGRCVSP
Assay: native MS
Conditions: remark: other sources report otherwise

relative abundance of the dimer: 5 to 8%
stoichiometry N: 2
B1: Albumin from chicken egg (Ovalbumin/OVA), P01012 1-386 (natural protein)
chain: T1 chain
